Experimental findings from patent publication US7220539 are described below.

In one data set the test system is T1, TRB-2.
T1 sequence: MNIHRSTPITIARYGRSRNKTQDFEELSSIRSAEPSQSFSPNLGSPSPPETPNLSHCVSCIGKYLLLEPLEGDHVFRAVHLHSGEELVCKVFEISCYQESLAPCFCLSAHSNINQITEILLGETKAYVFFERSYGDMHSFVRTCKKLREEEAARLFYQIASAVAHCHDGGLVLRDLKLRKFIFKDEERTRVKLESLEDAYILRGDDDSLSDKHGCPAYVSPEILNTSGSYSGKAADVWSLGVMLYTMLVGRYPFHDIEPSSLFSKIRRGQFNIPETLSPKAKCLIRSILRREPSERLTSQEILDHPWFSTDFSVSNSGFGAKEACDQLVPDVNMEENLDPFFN

The test system of data set [1] is TRB-3 (wild-type, recombinant; tag and species not stated).
Data set [2] addresses Akt (over-expressed or present in transfected cells; isoform and tag not stated). Kind of data set: cell-based or functional assay.
Data set [3] concerns the target GAL4 ΔPH (amino acids 150-480) Akt construct (yeast) (UniProt P04386). Kind of data set: cell-based or functional assay.
Chain of UniProt P04386 (P04386 1-147, stated change not applied): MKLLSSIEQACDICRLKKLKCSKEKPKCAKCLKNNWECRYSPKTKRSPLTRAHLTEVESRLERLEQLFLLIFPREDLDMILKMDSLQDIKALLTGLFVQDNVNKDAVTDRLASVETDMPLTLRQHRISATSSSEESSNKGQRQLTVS

For the substance “Akt (over-expressed or present in transfected cells; isoform and tag not stated)”, the “phosphorylation of Akt” value with TRB-2 is “TRB-2 was similarly effective at blocking Akt phosphorylation”.

With HA-tagged Akt1, the “Akt activity, in vitro kinase assays with a consensus Akt peptide substrate” value in data set [1] was “Over-expression of TRB-3 reduced Akt activity”.

“TRB-3 (wild-type, recombinant; tag and species not stated)” displayed a forkhead (Foxo1) activity on an IGFBP1 reporter in HEK293 cells in data set [2] of 3 fold.

On to “TRB-3-VP16 (from UniProt P06492 411-490)”, for which, in data set [3], the GAL4 luciferase reporter activity, mammalian two hybrid assay in HEK293 cells, relative to control VP16 expression vector is 5 fold.
